Assay results published in patent US10925971B2, “Methods of treating PRLR positive breast cancer” (Regeneron Pharmaceuticals, Inc., priority 2016, dated 2021).

Molecular target: T1, hPRLR-mmH (SEQ ID NO:406) (Homo sapiens, UniProt P16471)
T1 construct: this experiment was conducted with a truncated form of PRLR (i.e., hPRLR-mmH)
Assay: Epitope mapping by hydrogen/deuterium exchange with MALDI-TOF MS
Type: binding
Description: Experiments were conducted to determine the amino acid residues of PRLR with which H1H6958N2 interacts. For this purpose hydrogen/deuterium (H/D) exchange epitope mapping was carried out. A general description of the H/D exchange method is set forth in e.g., Ehring (1999) Analytical Biochemistry 267(2):252-259; and Engen and Smith (2001) Anal. Chem. 73:256A-265A.
To map the binding epitope(s) of antibody H1H6958N2 on hPRLR via H/D exchange, a construct comprising a recombinant extracellular domain of hPRLR with a C-terminal myc-myc-hexahistidine tag (hPRLR-mmH; SEQ ID NO: SEQ ID NO:406) was buffer exchanged to PBS with a final concentration of 8 mg/mL, and antibody H1H6958N2 was covalently attached to N-hydroxysuccinimide (NHS) agarose beads (GE Lifescience)
In the ‘on-solution/off-beads’ (on-exchange in solution followed by off-exchange on beads) experiment, the hPRLR was deuterated for 5 min or 10 min in PBS buffer prepared with D2O, and then bound to H1H6958N2 beads through a 2 min incubation. The hPRLR-bound beads were washed with PBS aqueous buffer (prepared with H2O) and incubated PBS buffer for half of the on-exchange time. After the off-exchange, the bound hPRLR was eluted from beads with an ice-cold low pH TFA solution. The eluted hPRLR was then digested with immobilized pepsin (Thermo Scientific) for 5 min. The resulting peptides were desalted using ZipTip® chromatographic pipette tips and immediately analyzed by UltrafleXtreme matrix assisted laser desorption ionization time of flight (MALDI-TOF)-TOF mass spectrometry (MS).
In the ‘on-beads/off-beads’ (on-exchange on beads followed by off-exchange on beads) experiment, hPRLR was first bound to H1H6958N2 beads and then incubated for 5 min or 10 min in D2O for on-exchange. The following steps (off-exchange, pepsin digestion, and MS analysis) were carried out as described for the ‘on-solution/off-beads’ procedure. The centroid values or average mass-to-charge ratios (m/z) of all the detected peptides were calculated and compared between these two sets of experiments.
The results are summarized in Table 29 which provides a comparison of the centroid m/z values for all the detected peptides identified by liquid chromatography and MS following the H/D exchange and peptic digest procedure described above. For purposes of the present Example, a positive difference (A) of at least 0.20 m/z in both experiments indicates amino acids protected by antibody binding. Segments meeting this criterion are indicated by bold text and an asterisk (*) in Table 29. [Note that, although this experiment was conducted with a truncated form of PRLR (i.e., hPRLR-mmH; SEQ ID NO: 406), residue numbering in the far left column of Table 29 has been adjusted to correspond to the amino acid sequence of the full-length PRLR protein represented by SEQ ID NO: 404.]

[1] = hPRLR peptide residues 168-180 of SEQ ID NO: 404, Experiment II 10 min on-/5 min off-exchange
[2] = hPRLR peptide residues 169-180 of SEQ ID NO: 404, Experiment I 5 min on-/2.5 min off-exchange
[3] = hPRLR peptide residues 169-180 of SEQ ID NO: 404, Experiment II 10 min on-/5 min off-exchange
[4] = hPRLR peptide residues 170-179 of SEQ ID NO: 404, Experiment I 5 min on-/2.5 min off-exchange
[5] = hPRLR peptide residues 170-179 of SEQ ID NO: 404, Experiment II 10 min on-/5 min off-exchange
[6] = hPRLR peptide residues 170-180 of SEQ ID NO: 404, Experiment I 5 min on-/2.5 min off-exchange
[7] = hPRLR peptide residues 170-180 of SEQ ID NO: 404, Experiment II 10 min on-/5 min off-exchange
[8] = hPRLR peptide residues 191-205 of SEQ ID NO: 404, Experiment I 5 min on-/2.5 min off-exchange
[9] = hPRLR peptide residues 191-205 of SEQ ID NO: 404, Experiment II 10 min on-/5 min off-exchange
[10] = hPRLR peptide residues 192-202 of SEQ ID NO: 404, Experiment I 5 min on-/2.5 min off-exchange
[11] = hPRLR peptide residues 192-202 of SEQ ID NO: 404, Experiment II 10 min on-/5 min off-exchange
[12] = hPRLR peptide residues 192-205 of SEQ ID NO: 404, Experiment I 5 min on-/2.5 min off-exchange
[13] = hPRLR peptide residues 192-205 of SEQ ID NO: 404, Experiment II 10 min on-/5 min off-exchange
[14] = hPRLR peptide residues 206-215 of SEQ ID NO: 404, Experiment I 5 min on-/2.5 min off-exchange
[15] = hPRLR peptide residues 206-215 of SEQ ID NO: 404, Experiment II 10 min on-/5 min off-exchange
[16] = hPRLR peptide residues 206-217 of SEQ ID NO: 404, Experiment I 5 min on-/2.5 min off-exchange
[17] = hPRLR peptide residues 206-217 of SEQ ID NO: 404, Experiment II 10 min on-/5 min off-exchange
[18] = hPRLR peptide residues 206-222 of SEQ ID NO: 404, Experiment I 5 min on-/2.5 min off-exchange
[19] = hPRLR peptide residues 206-222 of SEQ ID NO: 404, Experiment II 10 min on-/5 min off-exchange
[20] = hPRLR peptide residues 236-249 of SEQ ID NO: 404, Experiment I 5 min on-/2.5 min off-exchange
[21] = hPRLR peptide residues 236-249 of SEQ ID NO: 404, Experiment II 10 min on-/5 min off-exchange
[22] = hPRLR peptide residues 238-261 of SEQ ID NO: 404, Experiment I 5 min on-/2.5 min off-exchange
[23] = hPRLR peptide residues 238-261 of SEQ ID NO: 404, Experiment II 10 min on-/5 min off-exchange
[24] = hPRLR peptide residues 241-261 of SEQ ID NO: 404, Experiment I 5 min on-/2.5 min off-exchange
[25] = hPRLR peptide residues 241-261 of SEQ ID NO: 404, Experiment II 10 min on-/5 min off-exchange
[26] = hPRLR peptide residues 250-261 of SEQ ID NO: 404, Experiment I 5 min on-/2.5 min off-exchange
[27] = hPRLR peptide residues 250-261 of SEQ ID NO: 404, Experiment II 10 min on-/5 min off-exchange

T1 sequence (P16471 with tags, fused parts or gaps): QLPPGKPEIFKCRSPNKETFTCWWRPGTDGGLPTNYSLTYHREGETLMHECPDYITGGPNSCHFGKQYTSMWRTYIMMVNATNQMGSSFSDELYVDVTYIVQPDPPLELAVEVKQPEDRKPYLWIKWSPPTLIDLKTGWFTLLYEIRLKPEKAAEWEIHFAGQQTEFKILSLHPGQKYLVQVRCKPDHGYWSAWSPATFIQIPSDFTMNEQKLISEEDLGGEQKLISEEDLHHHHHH

B1: H1H6958N2: anti-PRLR antibody, receptor blocking, human IgG1 Fc form of H2M6958N2 of Table 1; HCVR/LCVR SEQ ID NOs 290/298 (antibody, V domains shown)
VH: QVQLVESGGGVVQPGRSLRLSCGASGFTFRNYGMQWVRQGPGKGLEWVTLISFDGNDKYYADSVKGRFTISRDNSKNTLFLQMNSLRTEDTAVYYCARGGDFDYWGQGTLVTVSS
VL: DIQMTQSPSSLSASVGDRVTITCRASQDIRKDLGWYQQKPGKAPKRLIYAASSLHSGVPSRFSGSGSGTEFTLTISSLQPEDFATYYCLQHNSYPMYTFGQGTKLEIK
Δ (centroid m/z difference) (hPRLR peptide residues 168-180 of SEQ ID NO: 404, Experiment I 5 min on-/2.5 min off-exchange): −0.06 m/z | centroid m/z, on-beads/off-beads [1]: 1633.64 m/z | centroid m/z, on-solution/off beads [1]: 1633.71 m/z | Δ (centroid m/z difference) [1]: 0.08 m/z | centroid m/z, on-beads/off-beads [2]: 1469.86 m/z | centroid m/z, on-solution/off beads [2]: 1469.67 m/z | Δ (centroid m/z difference) [2]: −0.19 m/z | centroid m/z, on-beads/off-beads [3]: 1469.67 m/z | centroid m/z, on-solution/off beads [3]: 1469.71 m/z | Δ (centroid m/z difference) [3]: 0.04 m/z | centroid m/z, on-beads/off-beads [4]: 1155.35 m/z | centroid m/z, on-solution/off beads [4]: 1155.40 m/z | Δ (centroid m/z difference) [4]: 0.05 m/z | centroid m/z, on-beads/off-beads [5]: 1155.39 m/z | centroid m/z, on-solution/off beads [5]: 1155.40 m/z | Δ (centroid m/z difference) [5]: 0.01 m/z | centroid m/z, on-beads/off-beads [6]: 1341.66 m/z | centroid m/z, on-solution/off beads [6]: 1341.62 m/z | Δ (centroid m/z difference) [6]: −0.04 m/z | centroid m/z, on-beads/off-beads [7]: 1341.34 m/z | centroid m/z, on-solution/off beads [7]: 1341.49 m/z | Δ (centroid m/z difference) [7]: 0.15 m/z | centroid m/z, on-beads/off-beads [8]: 1772.03 m/z | centroid m/z, on-solution/off beads [8]: 1772.03 m/z | Δ (centroid m/z difference) [8]: −0.01 m/z | centroid m/z, on-beads/off-beads [9]: 1772.28 m/z | centroid m/z, on-solution/off beads [9]: 1772.15 m/z | Δ (centroid m/z difference) [9]: −0.13 m/z | centroid m/z, on-beads/off-beads [10]: 1284.39 m/z | centroid m/z, on-solution/off beads [10]: 1284.36 m/z | Δ (centroid m/z difference) [10]: −0.03 m/z | centroid m/z, on-beads/off-beads [11]: 1284.43 m/z | centroid m/z, on-solution/off beads [11]: 1284.32 m/z | Δ (centroid m/z difference) [11]: −0.11 m/z | centroid m/z, on-beads/off-beads [12]: 1624.98 m/z | centroid m/z, on-solution/off beads [12]: 1624.94 m/z | Δ (centroid m/z difference) [12]: −0.04 m/z | centroid m/z, on-beads/off-beads [13]: 1625.17 m/z | centroid m/z, on-solution/off beads [13]: 1625.08 m/z | Δ (centroid m/z difference) [13]: −0.10 m/z | centroid m/z, on-beads/off-beads [14]: 1261.33 m/z | centroid m/z, on-solution/off beads [14]: 1261.44 m/z | Δ (centroid m/z difference) [14]: 0.11 m/z | centroid m/z, on-beads/off-beads [15]: 1261.46 m/z | centroid m/z, on-solution/off beads [15]: 1261.24 m/z | Δ (centroid m/z difference) [15]: −0.22 m/z | centroid m/z, on-beads/off-beads [16]: 1419.65 m/z | centroid m/z, on-solution/off beads [16]: 1419.64 m/z | Δ (centroid m/z difference) [16]: −0.01 m/z | centroid m/z, on-beads/off-beads [17]: 1419.45 m/z | centroid m/z, on-solution/off beads [17]: 1419.48 m/z | Δ (centroid m/z difference) [17]: 0.02 m/z | centroid m/z, on-beads/off-beads [18]: 1962.39 m/z | centroid m/z, on-solution/off beads [18]: 1962.58 m/z | centroid m/z, on-beads/off-beads [19]: 1962.63 m/z | centroid m/z, on-solution/off beads [19]: 1962.52 m/z | Δ (centroid m/z difference) [19]: −0.10 m/z | centroid m/z, on-beads/off-beads [20]: 1560.76 m/z | centroid m/z, on-solution/off beads [20]: 1560.81 m/z | Δ (centroid m/z difference) [20]: 0.05 m/z | centroid m/z, on-beads/off-beads [21]: 1560.83 m/z | centroid m/z, on-solution/off beads [21]: 1560.81 m/z | Δ (centroid m/z difference) [21]: −0.01 m/z | centroid m/z, on-beads/off-beads [22]: 2827.99 m/z | centroid m/z, on-solution/off beads [22]: 2828.15 m/z | Δ (centroid m/z difference) [22]: 0.16 m/z | centroid m/z, on-beads/off-beads [23]: 2828.17 m/z | centroid m/z, on-solution/off beads [23]: 2827.99 m/z | Δ (centroid m/z difference) [23]: −0.18 m/z | centroid m/z, on-beads/off-beads [24]: 2498.74 m/z | centroid m/z, on-solution/off beads [24]: 2498.70 m/z | Δ (centroid m/z difference) [24]: −0.04 m/z | centroid m/z, on-beads/off-beads [25]: 2498.88 m/z | centroid m/z, on-solution/off beads [25]: 2498.68 m/z | Δ (centroid m/z difference) [25]: −0.20 m/z | centroid m/z, on-beads/off-beads [26]: 1528.75 m/z | centroid m/z, on-solution/off beads [26]: 1528.68 m/z | Δ (centroid m/z difference) [26]: −0.06 m/z | centroid m/z, on-beads/off-beads [27]: 1528.71 m/z | centroid m/z, on-solution/off beads [27]: 1528.64 m/z | Δ (centroid m/z difference) [27]: −0.07 m/z
